# Test results as given in publication PMC4006750, “GOLPH3 Is Essential for Contractile Ring Formation and Rab11 Localization to the Cleavage Site during Cytokinesis in Drosophila melanogaster” (PLoS Genetics, 2014).
# Values joined by “and” are separate entries in the source; they are usually repeats but may differ in a detail not shown here. Identical values can stand only once.
# B1: Drosophila Rab11, GST removed (analyte of the SPR experiment) (natural protein, UniProt O18335 1-214, looked up)
# chain: MGAREDEYDYLFKVVLIGDSGVGKSNLLSRFTRNEFNLESKSTIGVEFATRSIEVDGKTIKAQIWDTAGQERYRAITSAYYRGAVGALLVYDIAKHLTYENVERWLRELRDHADQNIVIMLVGNKSDLRHLRSVPTDEAKLFAERNGLSFIETSALDSTNVETAFQNILTEIYRIVSQKQIRDPPEGDVIRPSNVEPIDVKPTVTADVRKQCCQ
# notes: Drosophila Rab11, full-length, made as GST fusion; source: E. coli BL21-CodonPlus [DE3], purified as GST fusion, GST cleaved off with PreScission Protease
# Molecular target: T1, Drosophila GOLPH3, GST removed (ligand of the SPR experiment) (Drosophila melanogaster, UniProt Q9VQ93 1-294)
# T1 construct: Drosophila melanogaster GOLPH3 (CG7085, sauron), polypeptide of 293 amino acids, full-length cDNA in pGEX-6p-2; A few vector residues probably remain at the N-terminus after PreScission cleavage; also called dGOLPH3; source: E. coli BL21-CodonPlus [DE3], purified as GST fusion, GST cleaved off with PreScission Protease; not shown: GST, N-terminal, cleaved
# T1 sequence (Q9VQ93 whole entry, the tested form may be a part): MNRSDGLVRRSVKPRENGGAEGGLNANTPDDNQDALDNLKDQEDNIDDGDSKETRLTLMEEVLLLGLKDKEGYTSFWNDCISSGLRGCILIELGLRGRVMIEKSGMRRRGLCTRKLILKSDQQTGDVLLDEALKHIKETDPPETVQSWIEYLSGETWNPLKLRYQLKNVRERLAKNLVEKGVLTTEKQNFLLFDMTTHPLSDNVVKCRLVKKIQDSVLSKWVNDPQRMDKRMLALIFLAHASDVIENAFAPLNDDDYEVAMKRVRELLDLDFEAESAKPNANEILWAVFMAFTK
# Experiment: SPR; BIACORE X, GOLPH3 immobilised on CM5 chip by amine coupling (about 1200 RU); Rab11 analyte 50 nM to 10.0 µM in 10 mM Hepes pH 7.4, 150 mM NaCl, 0.005% surfactant P20, 30 µl/min
# Settings: both partners purified
binder,measurement,value
B1,Kd,0.18 µM
same,koff,~0.0002 s⁻¹ and ~0.0001 s⁻¹
